The values below come from publication PMC11347675.

The target in test [1] is 1059-SOSIP (soluble SOSIP Env trimer of the transmitted/founder HIV-1 strain 1059) (HIV-1 (strain 1059, transmitted/founder)). In words: cryo-EM structure; unliganded SOSIP trimers purified by GNL/SEC; 2.16 mg/mL 1059-SOSIP, 3.64 mg/mL BG505-SOSIP; 0.085 mM DDM before vitrification; refined with C1 symmetry.
The target of test [2] is BG505-SOSIP (soluble SOSIP Env trimer of HIV-1 strain BG505) (HIV-1 (strain BG505)) (UniProt Q2N0S6). Described as above.

By stoichiometry N is commonly meant a count of units in the complex or per binding partner.

The substance “1059-SOSIP (soluble SOSIP Env trimer of the transmitted/founder HIV-1 strain 1059) (complex)” yielded a stoichiometry N in test [1] of 3.
In test [2], “BG505-SOSIP (soluble SOSIP Env trimer of HIV-1 strain BG505) (from UniProt Q2N0S6 1-860; Q2N0S6 1-860) (complex)” registered a stoichiometry N of 3.
